{"source": "paper PMC3510010", "assay_in_all_cases": "F-EMSA", "key": {"POS-1(1-206) [1]": {"target": "T1, POS-1(1-206) (Caenorhabditis elegans, UniProt G5EF15 1-206)", "T1 sequence (G5EF15 1-206)": "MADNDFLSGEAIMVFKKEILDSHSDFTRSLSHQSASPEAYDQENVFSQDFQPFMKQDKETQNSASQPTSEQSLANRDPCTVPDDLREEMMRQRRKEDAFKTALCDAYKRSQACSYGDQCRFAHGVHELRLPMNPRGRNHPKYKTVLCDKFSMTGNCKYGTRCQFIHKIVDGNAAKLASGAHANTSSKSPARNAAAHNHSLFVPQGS"}, "POS-1-RBD (80-180)": {"target": "POS-1-RBD (80-180) (Caenorhabditis elegans, UniProt G5EF15 80-180)", "sequence (G5EF15 80-180)": "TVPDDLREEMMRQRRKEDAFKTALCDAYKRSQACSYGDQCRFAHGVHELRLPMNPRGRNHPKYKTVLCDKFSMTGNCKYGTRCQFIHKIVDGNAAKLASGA"}, "SPN-4-RBD": {"target": "T2, SPN-4-RBD (Caenorhabditis elegans, UniProt G5EF02 50-135)", "T2 sequence": "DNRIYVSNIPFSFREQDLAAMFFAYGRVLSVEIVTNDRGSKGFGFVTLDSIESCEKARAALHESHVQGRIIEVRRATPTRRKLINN"}, "GLD-1(135-336) [2]": {"target": "T3, GLD-1(135-336) (Caenorhabditis elegans, UniProt Q17339 135-336)", "T3 sequence": "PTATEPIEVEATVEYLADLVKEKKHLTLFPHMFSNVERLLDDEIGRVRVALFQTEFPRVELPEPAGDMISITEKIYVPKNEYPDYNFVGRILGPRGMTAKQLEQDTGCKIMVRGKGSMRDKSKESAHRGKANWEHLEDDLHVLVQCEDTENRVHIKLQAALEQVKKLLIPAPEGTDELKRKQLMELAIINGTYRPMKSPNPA"}, "POS-1(1-206) [3]": {"target": "T1, POS-1(1-206)", "remark": "listed apart in the source"}, "POS-1(1-206) [4]": {"target": "T1, POS-1(1-206)", "remark": "listed apart in the source"}, "GLD-1(135-336) [5]": {"target": "T3, GLD-1(135-336)", "remark": "listed apart in the source"}, "POS-1(1-206) [6]": {"target": "T1, POS-1(1-206)", "remark": "listed apart in the source"}, "GLD-1(135-336) [7]": {"target": "T3, GLD-1(135-336)", "remark": "listed apart in the source"}}, "note": "Where two headings read alike, the source gives them in different places.", "data": [{"binder": "UUUUUCUUAUUCUAGACUAAUAUUGUAAGCU (ssRNA)", "note": "[glp-1 WT]", "values": [{"measurement": "Kd", "setting": "POS-1(1-206) [1]", "result": "19 ± 2", "unit": "nM"}, {"measurement": "Kd", "setting": "POS-1-RBD (80-180)", "result": "30 ± 17", "unit": "nM"}, {"measurement": "binding result", "setting": "SPN-4-RBD", "result": "no binding"}, {"measurement": "Kd", "setting": "GLD-1(135-336) [2]", "result": "70 ± 10", "unit": "nM"}]}, {"binder": "UUUUUCUUAUUCUAGACCAAUAUUGUAAGCU (ssRNA)", "note": "[∆GBM]", "values": [{"measurement": "Kd", "setting": "POS-1(1-206) [3]", "result": "21 ± 1", "unit": "nM"}]}, {"binder": "UUUUUCUCCCUCUAGACUAAUAUUGUAAGCU (ssRNA)", "note": "[∆5′ PRE]", "values": [{"measurement": "Kd", "setting": "POS-1(1-206) [4]", "result": "55 ± 4", "unit": "nM"}, {"measurement": "Kd", "setting": "GLD-1(135-336) [5]", "result": "33 ± 7", "unit": "nM"}]}, {"binder": "UUUUUCUUAUUCUAGACUAACCCUGUAAGCU (ssRNA)", "note": "[∆3′ PRE]", "values": [{"measurement": "Kd", "setting": "POS-1(1-206) [6]", "result": "53 ± 1", "unit": "nM"}, {"measurement": "Kd", "setting": "GLD-1(135-336) [5]", "result": "25 ± 3", "unit": "nM"}]}, {"binder": "UUUUUCUCCCUCUAGACUAACCCUGUAAGCU (ssRNA)", "note": "[∆5′ 3′ PRE]", "values": [{"measurement": "Kd", "setting": "GLD-1(135-336) [7]", "result": "20 ± 3", "unit": "nM"}, {"measurement": "Kd", "setting": "POS-1(1-206) [3]", "result": "310 ± 20", "unit": "nM"}]}]}
